Assay results reported in patent US20110135636A1 (SYMPHOGEN A S, published 2011).

Assays:
[1] = target: T1, Cynomolgus EGFR extracellular domain (Cynomolgus monkey (Macaca fascicularis), UniProt P55245 25-645 (rhesus entry)); experiment: ELISA on cynomolgus EGFR ECD (Example 10)
T1 construct: Cloned without signal peptide; also called Cynomolgus rEGFR ECD; Cynomolgus EGFR ECD
Description: To verify that tested Anti-EGFR antibodies bound equally well to both Human and Cynomolgus EGFR ECD and accordingly warranting toxicology studies in Cynomolgus monkeys, serial four fold dilutions of antibodies beginning from 1 μg/ml were tested by ELISA for binding to recombinant Human and Cynomolgus EGFR ECD proteins. […] ELISA wells were coated with 50 μl/well of full length EGFR at a concentration of 1 μg/ml in PBS overnight at 4° C. The next morning wells were washed twice with PBS-T and blocked for one hour with 100 μl PBS-T-1% BSA at room temperature, followed by wash twice in PBS-T. Next 50 μl of serially diluted Anti-EGFR antibodies and control antibodies were added to wells and incubated for one hour at room temperature. After antibody incubation wells were washed five times with PBS-T, followed by incubation with 50 μl/well Streptavidin-HRP secondary reagent diluted 1:3000 in blocking buffer and incubation at room temperature for 30 min. Finally wells were washed five times with PBS-T and plates were developed by adding 50 μL/well TMB substrate and incubated at room temperature. After incubation the reaction was stopped by addition of 1 M H₂SO₄; 100 μl/well and plates were read at OD 450 nm.

[2] = target: T2, recombinant human EGFR extracellular domain with 6xHis (human, UniProt P00533 25-645); experiment: SPR (Biacore 3000) on captured 6xHis EGFR ECD
T2 construct: In-house produced; also called 6xHis EGFR ECD; soluble human EGFR ECD; not shown: 6xHis tag

[3] = target: T3, full length human EGFR expressed on the cell surface (human, UniProt P00533 25-1210); experiment: cell ELISA, Fab titrated on paraformaldehyde-fixed A431-NS cells
T3 construct: whole, on cells; also called EGFR on A431-NS cells; EGFR on HN5 cells
Description: (§1) Cell ELISA: The relative binding affinities defined as the molar concentration giving the half maximal OD (ED50) were determined by antibody titrations on A431-NS cells. Briefly, 10,000 A431-NS cells were grown in 96 well ELISA plates containing DMEM with added 0.5% FCS and 1% P/S at 37° C., 5% CO₂ overnight. […] Then 50 μl of a secondary Goat-anti-Human (Fab specific) HRP conjugate diluted 1:5000 in DMEM containing 1% BSA was added and incubated on ice for 30 min. Finally wells were washed four times with PBS and plates developed by adding 50 μl/well TMB Plus substrate and read at 620 nm every 5-15-30 min. After incubation with substrate the reaction was stopped by addition of 1 M H₂SO₄ and absorbance read at 450 nm. The functional affinity expressed as ED50 values were calculated by subtraction of the average background binding with secondary reagent only, followed by normalization of the binding curves by plotting % maximal binding relative to each antibody tested.

[4] = target: T3, full length human EGFR expressed on the …; experiment: cell ELISA, Fab titrated on paraformaldehyde-fixed A431-NS cells; given as ED50
Description: as §1

[5] = target: T3, full length human EGFR expressed on the …; experiment: cell ELISA, Fab on A431-NS cells
Description: as §1

[6] = target: T4, EGFR-Fc (recombinant EGFR ECD-Fc chimera, R&D Systems 344-ER) (human, UniProt P00533 25-645); experiment: SPR (BIAcore 2000); Fab over immobilized EGFR ECD-Fc
T4 construct: extracellular domain; Bought; also called immobilized Human EGFR ECD; immobilized receptor; not shown: human IgG Fc

[7] = target: T4, EGFR-Fc (recombinant EGFR ECD-Fc …); experiment: SPR (BIAcore 2000); Fab over immobilized EGFR ECD-Fc against IgG with soluble EGFR ECD
[8] = target: T5, wild type full length EGFR purified from A431 cells (human, UniProt P00533 25-1210); experiment: indirect ELISA, Fab on coated purified full length EGFR
T5 construct: mature; Bought; coated on ELISA wells; also called full length EGFR receptor antigen; Sigma E3641

[9] = target: T3, full length human EGFR expressed on the …; experiment: cell ELISA, Fab titrated on paraformaldehyde-fixed A431-NS cells, against SPR
Description: as §1

[10] = target: T4, EGFR-Fc (recombinant EGFR ECD-Fc …); experiment: SPR (BIAcore 2000); Fab over immobilized EGFR ECD-Fc; Scatchard analysis

B1: antibody 1229 (antibody, human IgG1, kappa, V domains shown)
VH: QVQLKESGPGLVAPSQSLSITCSVSGFSLTIYGVHWVRQPPGKGLEWLGVMWAGGNTDYNSALMSRLNISKDNSKSQVFLKVNSLQTDDTAMYYCTRDPDGYYVGWFFDVWGAGTTVTVSS
VL: DIVMTQSHKFMSTSVGDRVSITCKASQDVTNAVAWYQQKPGQSPKLLIYWASIRHTGVPDRFTGSRSGTDYTLTINSVQAEDLALYYCQQHYNTPLTFGAGTKLEIKR
notes: Chimeric IgG1 kappa
- binding result [1]: no binding
- binding result [2]: no binding (tested: 40 ug/ml)

B2: Fab 1024 (Fab, V domains shown, not shown: small tags and cut ends)
VH: QVQLQQPGAELVEPGGSVKLSCKASGYTFTSHWMHWVKQRPGQGLEWIGEINPSSGRNNYNEKFKSKATLTVDKSSSTAYMQFSSLTSEDSAVYYCVRYYGYDEAMDYWGQGTSVTVS
VL: DIVMTQAAFSNPVTLGTSASISCRSSKSLLHSNGITYLYWYLQKPGQSPQLLIYQMSNLASGVPDRFSSSGSGTDFTLRISRVEAEDVGVYYCAQNLELPYTFGGGTKLEIKR
- Log ED50 [3]: 0.3
- EC50 [4]: 2 nM
- EC50 (read off the curve) [5]: ~2 nM
- Kd [6]: 25.6 nM
- koff [6]: 0.0049 s⁻¹
- kon [6]: 190000 M⁻¹ s⁻¹
- t1/2 [6]: 2.3 min

B3: Fab 1030 (Fab, V domains shown, not shown: small tags and cut ends)
VH: EVQLVESGGGLVKPGGSLKLSCAASGFTFSSYALSWVRQTPERRLEWVASISGVGSTYFPDSVKGRFTMSRDNARNILYLQMSSLRSEDTAMYYCARGSDGYFYAMDYWGQGTSVTVS
VL: DIVLTQSPASLAVSLGQRATISCRASKSVSTSGYSFMHWYQLKPGQPPKLLIYLASNLESGVPARFSGSGSGTDFTLNIHPVEEEDAATYYCQHSREFPLTFGGGTKLEIKR
- Log ED50 [3]: 0.27
- EC50 [4]: 1.8 nM
- fold higher affinity against immobilized antigen than against soluble receptor [7]: 10 fold
- EC50 (read off the curve) [8]: ~4 nM
- EC50 (read off the curve) [5]: ~1 nM
- Kd [6]: 2.3 nM
- koff [6]: 0.0002 s⁻¹
- kon [6]: 87000 M⁻¹ s⁻¹
- t1/2 [6]: 57.5 min

B4: Fab 992 (Fab, V domains shown, not shown: small tags and cut ends)
VH: EVQLQQPGSELVRPGASVKLSCKASGYTFTSYWMHWVKQRPGQGLEWIGNIYPGSRSTNYDEKFKSKATLTVDTSSSTAYMQLSSLTSEDSAVYYCTRNGDYYVSSGDAMDYWGQGTSVTVS
VL: DIQMTQTTSSLSASLGDRVTISCRTSQDIGNYLNWYQQKPDGTVKLLIYYTSRLHSGVPSRFSGSGSGTDFSLTINNVEQEDVATYFCQHYNTVPPTFGGGTKLEIKR
- fold lower monovalent functional affinity value on cells than tested with BIAcore [9]: ≥ 15 fold
- Log ED50 [3]: 1
- EC50 [4]: 9.9 nM
- Kd [10]: 150 nM
- t1/2 [6]: 0.2 min
